Positions count from the first letter of the chain named. Each block holds one binder with its values, some of them ahead of it.
Key:
hBTLA expressed on cells = hBTLA expressed on cells (human, UniProt Q7Z6A9 31-289); experiment: cell-based or functional assay
human C1q = biological target: T1, human C1q (human, UniProt P02745 23-245; P02746 28-253; P02747 29-245); experiment: C1q binding assay, method not described (Table 18: 'Non-specific binding')
T1 construct: also called C1q protein

recombinant human FcRn = biological target: T2, recombinant human FcRn (human, UniProt P55899 24-297; P61769 21-119); experiment: SPR, Biacore T200; Fc receptor captured on anti-His antibody, antibody injected
T2 construct: Captured on an anti-His antibody
Text: (§1) ADCC is initiated when an antibody binds to a cell surface target protein and then links to an Fc γ receptor (FcγR) expressed on effector cells. […] In conjunction with ADCC, CDC is activated when antibodies cross-link the cell surface target and C1q protein, followed by a cascade reaction of complement complex formation and target cell lysis. As a proxy for ADCC and CDC, the detection of antibody binding to FcγR and C1q may serve as basic indicators of ADCC and CDC. Thus, in the present invention, the kinetic binding affinity of monoclonal antibodies for major FcγRs was evaluated using biacore T200 (GE).
(§2) Anti-His antibody (GE) was immobilized on the sensor wafer. Various Fc receptors, including recombinant human FcγRIIIA (CD16a) V176, recombinant human FcγRIIA (CD32a) R167, recombinant human FcγRI (CD64) and recombinant human FcRn were captured, then a series of diluted recombinant human anti-BTLA antibodies (i.e., hu18) were injected, and the binding properties of the interactions were assayed and analyzed. hu18 is an IgG4 subtype, and hu18-IgG1 is an IgG1 subtype that shares the same Fab as hu18 and serves as a positive control.

[1] = biological target: recombinant human FcγRIIIA (CD16a) V176 (human, UniProt P08637 17-208); experiment: as above
Text: as §1, §2

[2] = biological target: T3, recombinant human FcγRIIA (CD32a) R167 (human, UniProt P12318 36-218); experiment: as above
T3 sequence (looked up): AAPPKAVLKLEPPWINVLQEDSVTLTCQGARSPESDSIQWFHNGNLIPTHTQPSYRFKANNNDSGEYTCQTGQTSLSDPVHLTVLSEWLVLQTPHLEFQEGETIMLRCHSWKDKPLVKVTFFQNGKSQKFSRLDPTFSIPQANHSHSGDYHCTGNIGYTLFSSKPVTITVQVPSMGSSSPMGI
Text: as §1, §2

[3] = biological target: recombinant human FcγRI (CD64) (human, UniProt P12314 16-288); experiment: as above
Text: as §1, §2

murine BTLA = biological target: T4, murine BTLA (murine, UniProt Q7TSA3 30-183, limits assumed); experiment: OD 450 nm against log ng/mL of antibody (ELISA-type readout as drawn; Example 11 describes a Fortebio/SPR chip assay with BTLA coupled to the chip)
T4 sequence (looked up): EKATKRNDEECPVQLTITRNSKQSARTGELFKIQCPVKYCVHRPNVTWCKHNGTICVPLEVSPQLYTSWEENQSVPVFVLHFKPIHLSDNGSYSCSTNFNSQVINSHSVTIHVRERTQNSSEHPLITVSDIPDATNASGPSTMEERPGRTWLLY

Chain of recombinant human FcγRI (CD64) (P12314 16-288 limits assumed): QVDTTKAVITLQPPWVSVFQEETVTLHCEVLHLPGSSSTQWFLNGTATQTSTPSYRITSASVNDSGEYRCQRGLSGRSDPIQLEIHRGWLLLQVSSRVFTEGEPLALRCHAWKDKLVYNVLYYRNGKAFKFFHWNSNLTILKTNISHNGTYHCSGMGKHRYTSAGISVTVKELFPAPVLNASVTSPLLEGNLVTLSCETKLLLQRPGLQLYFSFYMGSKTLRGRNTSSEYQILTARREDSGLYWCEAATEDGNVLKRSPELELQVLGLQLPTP
Chain of recombinant human FcγRIIIA (CD16a) V176 (P08637 17-208 F176V): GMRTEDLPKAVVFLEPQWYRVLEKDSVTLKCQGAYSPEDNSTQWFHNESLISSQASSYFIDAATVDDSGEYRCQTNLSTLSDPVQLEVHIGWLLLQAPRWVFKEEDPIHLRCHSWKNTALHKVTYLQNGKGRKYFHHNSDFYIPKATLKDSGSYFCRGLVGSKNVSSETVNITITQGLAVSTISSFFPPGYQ
T1 sequence (P02745 23-245 limits assumed, chain 1 of 3): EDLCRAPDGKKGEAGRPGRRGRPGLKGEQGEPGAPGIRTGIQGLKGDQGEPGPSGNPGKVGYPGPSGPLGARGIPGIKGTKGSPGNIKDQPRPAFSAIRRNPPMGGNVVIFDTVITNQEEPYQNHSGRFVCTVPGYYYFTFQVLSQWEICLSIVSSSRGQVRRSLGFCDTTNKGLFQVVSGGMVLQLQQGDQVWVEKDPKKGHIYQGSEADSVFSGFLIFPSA
T1 sequence (P02746 28-253 limits assumed, chain 2 of 3): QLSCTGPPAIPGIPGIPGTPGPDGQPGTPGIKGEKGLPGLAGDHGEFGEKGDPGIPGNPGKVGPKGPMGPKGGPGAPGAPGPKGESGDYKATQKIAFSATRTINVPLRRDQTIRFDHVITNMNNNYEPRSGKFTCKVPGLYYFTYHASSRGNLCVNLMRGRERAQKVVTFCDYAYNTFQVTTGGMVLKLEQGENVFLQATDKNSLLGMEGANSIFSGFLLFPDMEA
T1 sequence (P02747 29-245 limits assumed, chain 3 of 3): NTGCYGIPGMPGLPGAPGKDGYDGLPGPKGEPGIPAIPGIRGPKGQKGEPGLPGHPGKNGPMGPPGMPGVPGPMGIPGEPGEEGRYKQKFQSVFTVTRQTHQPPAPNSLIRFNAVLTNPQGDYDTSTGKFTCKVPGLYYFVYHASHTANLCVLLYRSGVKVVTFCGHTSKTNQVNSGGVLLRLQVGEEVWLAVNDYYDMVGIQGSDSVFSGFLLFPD

EC50 (ng/mL); NFAT-luciferase luminescence of Jurkat hPD-1/hBTLA report cells co-cultured with CHO cells expressing hPD-L1/hHVEM (hBTLA expressed on cells): 277 ng/mL
binding result (human C1q): no binding
Kd (recombinant human FcRn): 0.138 µM
koff (recombinant human FcRn): 0.0708 s⁻¹
kon (recombinant human FcRn): 512000 M⁻¹ s⁻¹
Kd [1]: 60.2 µM
fold weaker interaction than the control antibody of the IgG1 subtype (hu18-IgG1) [1]: 400 fold
Kd [2]: 40.6 µM
Kd [3]: 0.0184 µM
koff [3]: 0.00387 s⁻¹
kon [3]: 210000 M⁻¹ s⁻¹
B1: recombinant humanized anti-BTLA monoclonal antibody hu18 (antibody, human IgG4 S228P, kappa)
heavy: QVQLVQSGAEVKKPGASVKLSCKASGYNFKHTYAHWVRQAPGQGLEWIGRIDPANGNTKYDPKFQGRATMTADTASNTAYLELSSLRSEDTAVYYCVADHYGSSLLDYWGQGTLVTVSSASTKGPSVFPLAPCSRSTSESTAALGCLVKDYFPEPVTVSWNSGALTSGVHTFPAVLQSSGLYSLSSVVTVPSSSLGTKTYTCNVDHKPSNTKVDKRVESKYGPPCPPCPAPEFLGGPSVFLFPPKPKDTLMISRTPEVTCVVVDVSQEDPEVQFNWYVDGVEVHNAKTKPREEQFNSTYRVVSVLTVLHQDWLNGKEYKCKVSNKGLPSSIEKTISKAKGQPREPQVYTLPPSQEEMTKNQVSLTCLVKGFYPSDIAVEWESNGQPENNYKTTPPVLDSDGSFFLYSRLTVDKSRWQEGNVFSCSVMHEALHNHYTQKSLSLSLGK
light: DVVMTQTPLSLSVTPGQPASISCKSSQSLLDSDGKTYLNWFQQRPGQSPRRLIYLVSKLDSGVPDRFSGSGSGTDFTLKISRVEAEDVGVYYCWQGTYFPYTFGQGTKLEIKRTVAAPSVFIFPPSDEQLKSGTASVVCLLNNFYPREAKVQWKVDNALQSGNSQESVTEQDSKDSTYSLSSTLTLSKADYEKHKVYACEVTHQGLSSPVTKSFNRGEC
notes: also called recombinant human anti-BTLA antibody of the IgG4 subtype

binding result (murine BTLA): no binding (tested: 1000 ng/mL (log 3))
EC50 (ng/mL); NFAT-luciferase luminescence of Jurkat hPD-1/hBTLA report cells co-cultured with CHO cells expressing hPD-L1/hHVEM (hBTLA expressed on cells): 257 ng/mL
B2: humanized anti-BTLA antibody hu17 (antibody, V domains shown)
VH: QVQLVQSGAEVKKPGASVKLSCKASGYNFKHTYAHWVRQAPGQGLEWIGRIDPANGNTKYDPKFQGRATMTADTASNTAYLELSSLRSEDTAVYYCVADHYGSSLLDYWGQGTLVTVSS
VL: DIVMTQTPLSLSVTPGQPASISCKSSQSLLDSDGKTYLNWFQQRPGQSPRRLIYLVSKLDSGVPDRFSGSGSGTDFTLKISRVEAEDVGVYYCWQGTYFPYTFGQGTKLEIK
notes: Called a full humanized antibody; also called hul7; hull

EC50 (ng/mL); NFAT-luciferase luminescence of Jurkat hPD-1/hBTLA report cells co-cultured with CHO cells expressing hPD-L1/hHVEM (hBTLA expressed on cells): 290 ng/mL
B3: humanized anti-BTLA antibody hu19 (antibody, V domains shown)
VH: B2 VH
VL: B2 VL with I53M, Y54H
